Source: patent US10357539B2, “Use of peptides that block metadherin-SND1 interaction as treatment for cancer” (THE TRUSTEES OF PRINCETON UNIVERSITY, priority 2014, dated 2019)
Substitutions are numbered along the chain they refer to. Names may count otherwise.

B1: SN3/4-TSN5 domains: SND1 C-terminal SN3/4-TSN5 domains, amino acids 340-885 of SEQ ID NO: 2 (protein, listed as Homo sapiens)
chain: DKQFVAKVMQVLNADAIVVKLNSGDYKTIHLSSIRPPRLEGENTQDKNKKLRPLYDIPYMFEAREFLRKKLIGKKVNVTVDYIRPASPATETVPAFSERTCATVTIGGINIAEALVSKGLATVIRYRQDDDQRSSHYDELLAAEARAIKNGKGLHSKKEVPIHRVADISGDTQKAKQFLPFLQRAGRSEAVVEYVFSGSRLKLYLPKETCLITFLLAGIECPRGARNLPGLVQEGEPFSEEATLFTKELVLQREVEVEVESMDKAGNFIGWLHIDGANLSVLLVEHALSKVHFTAERSSYYKSLLSAEEAAKQKKEKVWAHYEEQPVEEVMPVLEEKERSASYKPVFVTEITDDLHFYVQDVETGTQLEKLMENMRNDIASHPPVEGSYAPRRGEFCIAKFVDGEWYRARVEKVESPAKIHVFYIDYGNREVLPSTRLGTLSPAFSTRVLPAQATEYAFAFIQVPQDDDARTDAVDSVVRDIQNTQCLLNVEHLSAGCPHVTLQFADSKGDVGLGLVKEGLVMVEVRKEKQFQKVITEYLNAQESA
B2: R255E: SND1 mutant R255E (protein, listed as Homo sapiens)
chain: MASSAQSGGSSGGPAVPTVQRGIIKMVLSGCAIIVRGQPRGGPPPERQINLSNIRAGNLARRAAATQPDAKDTPDEPWAFPAREFLRKKLIGKEVCFTIENKTPQGREYGMIYLGKDTNGENIAESLVAEGLATRREGMRANNPEQNRLSECEEQAKAAKKGMWSEGNGSHTIRDLKYTIENPRHFVDSHHQKPVNAIIEHVRDGSVVRALLLPDYYLVTVMLSGIKCPTFRREADGSETPEPFAAEAKFFTESELLQRDVQIILESCHNQNILGTILHPNGNITELLLKEGFARCVDWSIAVYTRGAEKLRAAERFAKERRLRIWRDYVAPTANLDQKDKQFVAKVMQVLNADAIVVKLNSGDYKTIHLSSIRPPRLEGENTQDKNKKLRPLYDIPYMFEAREFLRKKLIGKKVNVTVDYIRPASPATETVPAFSERTCATVTIGGINIAEALVSKGLATVIRYRQDDDQRSSHYDELLAAEARAIKNGKGLHSKKEVPIHRVADISGDTQKAKQFLPFLQRAGRSEAVVEYVFSGSRLKLYLPKETCLITFLLAGIECPRGARNLPGLVQEGEPFSEEATLFTKELVLQREVEVEVESMDKAGNFIGWLHIDGANLSVLLVEHALSKVHFTAERSSYYKSLLSAEEAAKQKKEKVWAHYEEQPVEEVMPVLEEKERSASYKPVFVTEITDDLHFYVQDVETGTQLEKLMENMRNDIASHPPVEGSYAPRRGEFCIAKFVDGEWYRARVEKVESPAKIHVFYIDYGNREVLPSTRLGTLSPAFSTRVLPAQATEYAFAFIQVPQDDDARTDAVDSVVRDIQNTQCLLNVEHLSAGCPHVTLQFADSKGDVGLGLVKEGLVMVEVRKEKQFQKVITEYLNAQESAKSARLNLWRYGDFRADDADEFGYSR
B3: R324E: SND1 mutant R324E (protein, listed as Homo sapiens)
chain: B2 chain with E255R, R324E
B4: F250A: SND1 mutant F250A (protein, listed as Homo sapiens)
chain: B2 chain with F250A, E255R
B5: Δ39-43: SND1 with deletion in the SN1 Lβ2-β3 loop (Δ39-43) (protein)
chain: VPTVQRGIIKMVLSGCAIIVRGQPPERQINLSNIRAGNLARRAAATQPDAKDTPDEPWAFPAREFLRKKLIGKEVCFTIENKTPQGREYGMIYLGKDTNGENIAESLVAEGLATRREGMRANNPEQNRLSECEEQAKAAKKGMWSEGNGSHTIRDLKYTIENPRHFVDSHHQKPVNAIIEHVRDGSVVRALLLPDYYLVTVMLSGIKCPTFRREADGSETPEPFAAEAKFFTESRLLQRDVQIILESCHNQNILGTILHPNGNITELLLKEGFARCVDWSIAVYTRGAEKLRAAERFAKERRLRIWRDYVAPTANLDQK
modifications: left off: small tags and cut ends
B6: R324A: SND1 mutant R324A (protein)
chain: VPTVQRGIIKMVLSGCAIIVRGQPRGGPPPERQINLSNIRAGNLARRAAATQPDAKDTPDEPWAFPAREFLRKKLIGKEVCFTIENKTPQGREYGMIYLGKDTNGENIAESLVAEGLATRREGMRANNPEQNRLSECEEQAKAAKKGMWSEGNGSHTIRDLKYTIENPRHFVDSHHQKPVNAIIEHVRDGSVVRALLLPDYYLVTVMLSGIKCPTFRREADGSETPEPFAAEAKFFTESRLLQRDVQIILESCHNQNILGTILHPNGNITELLLKEGFARCVDWSIAVYTRGAEKLRAAERFAKERRLAIWRDYVAPTANLDQK
modifications: left off: small tags and cut ends
B7: WT HA-SND1: full-length HA-tagged wild-type human SND1 (protein)
chain: B2 chain with E255R

biological target: T1, MTDH (364-582) (Homo sapiens, UniProt Q86UE4); assay: GST-mediated pull-down of SND1 constructs and mutants by GST-tagged MTDH (364-582); assay type: binding; conditions: SND1 mutants in SND1 (16-339)
T1 construct: made in house; host or cells: E. coli DH5α
T1 sequence (Q86UE4 364-582): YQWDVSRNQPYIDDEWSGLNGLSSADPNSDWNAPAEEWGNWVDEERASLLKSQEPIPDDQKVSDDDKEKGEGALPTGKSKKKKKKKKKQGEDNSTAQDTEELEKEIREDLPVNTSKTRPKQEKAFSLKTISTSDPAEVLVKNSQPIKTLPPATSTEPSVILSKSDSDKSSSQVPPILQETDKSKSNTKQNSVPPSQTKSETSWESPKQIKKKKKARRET
Excerpt: (§1) (FIG. 22A) In vitro pull-down of SND1 (16-339) by GST-tagged MTDH (364-582) harboring WT or mutant sequence. The proteins bound to GS4B were examined on SDS-PAGE and visualized by Coomassie blue staining. (FIG. 22B) In vitro pull-down of WT and mutant SND1 (16-339) by GST-tagged MTDH (364-582). The bound proteins were examined as in (FIG. 22A). For both (FIG. 22A) and (FIG. 22B), experiments were repeated three times; representative results are shown. The normalized percentage of binding was averaged from three experiments; mean±SEM was shown below the data. (FIG. 22C) HEK293T cells were transfected with human HA-SND1, WT Myc-MTDH or Myc-MTDH with indicated single point mutation. Lysates were immunoprecipitated with anti-Myc antibody and immunoblotted with the indicated antibodies. (FIG. 22D) HEK293T cells were transfected with human Myc-MTDH, WT HA-SND1 or mutant HA-SND1 with indicated single point mutations or deletions. Lysates were immunoprecipitated with anti-Myc and immunoblotted with the indicated antibodies.
GST-Mediated Pull-Down Assay: ˜20 μg of GST-MTDH (different truncation forms and site mutants) was bound to 10 μl of glutathione resin via GST tag. The resin was washed with 200 μl assay buffer (25 mM Tris, PH8.0, 150 mM NaCl, 3 mM DTT) three times to remove the excess unbound protein. 15 μg of His-SND1 (16-339) was added to the resin in a 100 μl volume suspended in the assay buffer with 2 mg/ml of BSA. The mixture was washed with 200 μl assay buffer twice before examined by SDS-PAGE, and visualized by Coomassie blue staining. The experiments were repeated 3 times and the ratio of SND1 associated with GST-MTDH was analyzed by ImageJ.

Molecule | MTDH-binding of SND1 domains and mutants, in vitro
B1 | barely interact with MTDH
B2 | almost completely abolished MTDH-binding
B3 | significantly weakened the MTDH-binding
B4 | almost completely abolished MTDH-binding
B5 | almost completely abolished MTDH-binding
B6 | barely affected MTDH-binding

biological target: T2, Myc-MTDH (Homo sapiens, UniProt Q86UE4, A78S/T317A); assay: Co-immunoprecipitation of HA-SND1 (WT or mutant) with Myc-MTDH in HEK293T cells; assay type: cell-based; conditions: HEK293T cell lysates
T2 construct: Full-length HA-tagged SND1 was co-expressed with full-length Myc-tagged wild-type (WT) or mutant MTDH in HEK293T cells; expressed in transfected cells; host or cells: HEK293T
T2 sequence (Q86UE4 1-582 A78S/T317A): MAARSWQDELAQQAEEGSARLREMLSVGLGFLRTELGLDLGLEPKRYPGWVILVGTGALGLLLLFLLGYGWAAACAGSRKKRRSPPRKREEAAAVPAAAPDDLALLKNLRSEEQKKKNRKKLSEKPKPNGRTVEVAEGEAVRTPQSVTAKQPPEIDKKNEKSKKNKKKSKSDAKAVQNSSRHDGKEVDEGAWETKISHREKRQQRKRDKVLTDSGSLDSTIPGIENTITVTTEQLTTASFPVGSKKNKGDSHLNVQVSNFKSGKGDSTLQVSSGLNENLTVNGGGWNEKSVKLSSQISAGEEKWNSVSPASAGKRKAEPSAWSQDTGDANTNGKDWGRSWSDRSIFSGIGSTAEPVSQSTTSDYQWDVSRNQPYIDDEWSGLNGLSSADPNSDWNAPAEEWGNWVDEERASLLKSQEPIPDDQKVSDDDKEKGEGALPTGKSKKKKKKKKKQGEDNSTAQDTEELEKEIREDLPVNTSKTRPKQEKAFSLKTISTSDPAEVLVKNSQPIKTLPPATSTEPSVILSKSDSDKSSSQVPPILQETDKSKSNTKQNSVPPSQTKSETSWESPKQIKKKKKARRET
Excerpt: as §1
Immunoprecipitation and western blot: For in vivo immunoprecipitation (IP) experiments, cultured cells were washed in cold PBS and lysed in lysis buffer (20 mM Tris pH 7.4, 0.15 M NaCl, 1 mM EDTA, 1 mM EGTA, 1% Tx-100, 0.0025 M Na2P2O7, 1 mM β-glycerolphosphate, 1 mM Na3VO4, and 1 mM NaF) with an EDTA-free protease inhibitor mixture (Roche Applied Science) and PMSF. Cell lysates were then incubated on ice for 10 min, centrifuged, and precleared by incubating with protein A/G beads (Santa Cruz Biotechnology) for 1 h at 4° C. For IP bead preparation, 30 μl of protein A/G beads were incubated with 5 μg of antibodies for 2 h at 4° C. IPs were carried out for overnight at 4° C., and beads were centrifuged, washed and subsequently boiled for 5 min in SDS protein loading buffer to elute bound protein. IP lysates were subjected to western blotting with indicated antibodies.

Molecule | interaction of full-length HA-SND1 (WT or mutant) with Myc-MTDH
B2 | nearly completely abolished MTDH-binding
B3 | significantly reduced the binding
B7 | bound readily with Myc-MTDH
B4 | nearly completely abolished MTDH-binding
B5 | nearly completely abolished MTDH-binding
